Target: MMP13-undigested human type II collagen (UniProt P02458)
Sequence (P02458 182-1241): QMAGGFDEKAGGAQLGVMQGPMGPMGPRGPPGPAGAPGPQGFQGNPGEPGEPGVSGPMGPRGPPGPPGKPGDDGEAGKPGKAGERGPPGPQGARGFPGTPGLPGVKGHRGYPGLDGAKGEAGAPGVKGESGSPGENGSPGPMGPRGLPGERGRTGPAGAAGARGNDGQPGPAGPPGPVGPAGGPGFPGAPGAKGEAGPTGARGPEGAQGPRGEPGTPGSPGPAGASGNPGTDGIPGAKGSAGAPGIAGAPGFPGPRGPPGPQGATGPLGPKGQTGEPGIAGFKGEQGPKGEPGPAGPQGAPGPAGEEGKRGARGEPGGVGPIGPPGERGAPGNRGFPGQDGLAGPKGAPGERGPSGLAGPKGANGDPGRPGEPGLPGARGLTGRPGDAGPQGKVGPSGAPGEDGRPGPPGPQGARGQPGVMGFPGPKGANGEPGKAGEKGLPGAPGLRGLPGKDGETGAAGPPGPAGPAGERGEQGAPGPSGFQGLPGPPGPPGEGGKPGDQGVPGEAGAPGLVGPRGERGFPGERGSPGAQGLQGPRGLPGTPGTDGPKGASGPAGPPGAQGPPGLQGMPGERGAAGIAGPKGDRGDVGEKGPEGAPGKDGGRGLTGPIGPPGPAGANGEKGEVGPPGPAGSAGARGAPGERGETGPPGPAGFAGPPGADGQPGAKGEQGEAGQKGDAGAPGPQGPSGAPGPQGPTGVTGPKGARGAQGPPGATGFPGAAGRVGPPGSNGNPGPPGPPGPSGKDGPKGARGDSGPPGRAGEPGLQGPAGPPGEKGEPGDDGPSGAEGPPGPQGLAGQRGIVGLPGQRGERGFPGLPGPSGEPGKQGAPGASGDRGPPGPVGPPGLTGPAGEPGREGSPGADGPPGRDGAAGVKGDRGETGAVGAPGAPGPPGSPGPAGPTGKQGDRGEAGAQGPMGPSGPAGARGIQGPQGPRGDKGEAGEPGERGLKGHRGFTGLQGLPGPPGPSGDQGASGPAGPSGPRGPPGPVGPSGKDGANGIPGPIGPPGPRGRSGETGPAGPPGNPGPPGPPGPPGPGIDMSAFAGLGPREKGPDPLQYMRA

activated human MMP13
amount of the collagen neoepitope in the enzyme-reaction buffer (sandwich ELISA of Example 4): the measurements of the neoepitope increased in a manner dependent on the dose of MMP13 added
